Data as given in patent US8840891 (RSR, dated 2014).

Target: human TSHR, wild type, expressed on CHO cells (human) (UniProt P16473)
Test: cell-based or functional assay

B1: 5C9 IgG (human monoclonal autoantibody to the TSHR) (antibody, from another filing, V domains shown)
VH: EVQLVESGGGLIQPGGSLRLSCAASGFTVSSNYMSWVRQAPGKGLEWVSVTYSGGSTSYADSVKGRFTISRDNSKNTLYLQMNSLRAEDTAVYYCARGGRYCSSISCYARSGCDYWGQGTLVTVSS
VL: AIQMTQSPSSLSASVGDRVTITCRASQSISNYLNWYQQKPGKAPKLLIYAASSLQSGVPSRFSGSGSGTDFTLTISSLQPEDFATYYCQQSYSSPSTTFGQGTKLEIK
What does the source list for B1?
cyclic AMP; Exp 1; 5C9 0.01 µg/mL + M22 3 ng/mL: 48.1 pmol/mL; cyclic AMP; Exp 1; 5C9 0.1 µg/mL + M22 3 ng/mL: 6 pmol/mL; cyclic AMP; Exp 1; 5C9 1 µg/mL + M22 3 ng/mL: 0.93 pmol/mL; cyclic AMP; Exp 1; 5C9 10 µg/mL + M22 3 ng/mL: 0.36 pmol/mL; cyclic AMP; Exp 1; 5C9 100 µg/mL + M22 3 ng/mL: 0.35 pmol/mL; cyclic AMP; Exp 1; 5C9 100 µg/mL only: 0.35 pmol/mL; cyclic AMP; Exp 2; 5C9 0.001 µg/mL + M22 3 ng/mL: 63.3 pmol/mL; cyclic AMP; Exp 2; 5C9 0.01 µg/mL + M22 3 ng/mL: 57.3 pmol/mL; cyclic AMP; Exp 2; 5C9 0.1 µg/mL + M22 3 ng/mL: 4.17 pmol/mL; cyclic AMP; Exp 2; 5C9 10 µg/mL + M22 3 ng/mL: 0.14 pmol/mL; cyclic AMP; Exp 2; 5C9 100 µg/mL only: 0.69 pmol/mL; cyclic AMP; Exp 2; 5C9 + M22 3 ng/mL: 2.54 pmol/mL; cyclic AMP; Exp 3; 5C9 0.001 µg/mL + M22 0.3 ng/mL: 13.3 pmol/mL; cyclic AMP; Exp 3; 5C9 0.01 µg/mL + M22 0.3 ng/mL: 13.1 pmol/mL; cyclic AMP; Exp 3; 5C9 0.1 µg/mL + M22 0.3 ng/mL: 1.43 pmol/mL; cyclic AMP; Exp 3; 5C9 1 µg/mL + M22 0.3 ng/mL: 0.02 pmol/mL; cyclic AMP; Exp 3; 5C9 10 µg/mL + M22 0.3 ng/mL: 0.2 pmol/mL; cyclic AMP; Exp 3; 5C9 100 µg/mL + M22 0.3 ng/mL: 0.05 pmol/mL; cyclic AMP; Exp 3; 5C9 100 µg/mL only: 0.58 pmol/mL; cyclic AMP; Exp 4; 5C9 0.001 µg/mL + M22 0.3 ng/mL: 33.1 pmol/mL; cyclic AMP; Exp 4; 5C9 0.01 µg/mL + M22 0.3 ng/mL: 31.5 pmol/mL; cyclic AMP; Exp 4; 5C9 0.1 µg/mL + M22 0.3 ng/mL: 6 pmol/mL; cyclic AMP; Exp 4; 5C9 1 µg/mL + M22 0.3 ng/mL: 0.21 pmol/mL; cyclic AMP; Exp 4; 5C9 10 µg/mL + M22 0.3 ng/mL: 0.4 pmol/mL; cyclic AMP; Exp 4; 5C9 100 µg/mL + M22 0.3 ng/mL: 0.22 pmol/mL; cyclic AMP; Exp 4; 5C9 100 µg/mL only: 0.12 pmol/mL
